# Test results from publication PMC10659578, “Mechanism of stepwise electron transfer in six-transmembrane epithelial antigen of the prostate (STEAP) 1 and 2” (eLife, 2023).
# Molecular target: the molecule itself
# Test: SEC; purified hSTEAP2 on an SRT-3C SEC-300 column in 20 mM HEPES, 150 mM NaCl, 0.01% LMNG; single peak
protein,measurement,value
"Human six-transmembrane epithelial antigen of the prostate 2 (STEAP2) (natural protein, N-terminal residues 1-27, residues 332-353 and C-terminal residues 470-490 are unresolved in the map, which implies a 490-residue chain; Homotrimer with heme; The cryo-EM sample was in GDN with FAD and NADP+; Residues of the TEV site may remain at the C-terminus after cleavage; also called hSTEAP2; not shown: His6, C-terminal, cleaved) MESISMMGSPKSLSETFLPNGINGIKDARKVTVGVIGSGDFAKSLTIRLIRCGYHVVIGSRNPKFASEFFPHVVDVTHHEDALTKTNIIFVAIHREHYTSLWDLRHLLVGKILIDVSNNMRINQYPESNAEYLASLFPDSLIVKGFNVVSAWALQLGPKDASRQVYICSNNIQARQQVIELARQLNFIPIDLGSLSSAREIENLPLRLFTLWRGPVVVAISLATFFFLYSFVRDVIHPYARNQQSDFYKIPIEIVNKTLPIVAITLLSLVYLAGLLAAAYQLYYGTKYRRFPPWLETWLQCRKQLGLLSFFFAMVHVAYSLCLPMRRSERYLFLNMAYQQVHANIENSWNEEEVWRIEMYISFGIMSLGLLSLLAVTSIPSVSNALNWREFSFIQSTLGYVALLISTFHVLIYGWKRAFEEEYYRFYTPPNFVLALVLPSIVILGKIILFLPCISRKLKRIKKGWEKSQFLEEGMGGTIPHVSPERVTVM",stoichiometry N,3
